Measured values as given in patent publication US6713283B2, “Tyrosylprotein sulfotransferases” (The Board of Regents of the University of Oklahoma, priority 1998, dated 2004).

Assays:
TPST = test: Inhibition of [35S]sulfate transfer in the TPST assay by free peptide; type: biochemical; details: free peptide versus immobilized peptide
Experimental: (§1) Assay of Sulfotransferase Activity. TPST activity was determined by measuring the transfer of [^35S]sulfate from [^35S]PAPS (Dupont/NEN) to an immobilized peptide. The peptide (QATEYEYLDYDFLPEC (SEQ ID NO:22)) represents the NH2-terminal 15 residues of the mature PSGL-1 polypeptide to which a carboxy terminal cysteine residue was added. […] The peptide was linked via the cysteine residue to iodoacetamide-activated resin (UltraLink™ Iodoacetyl, Pierce) at a density of 1.5-3.0 μmol/ml resin. The enzyme assay was performed by combining 10 μl of peptide-derivitized beads with 2-20 μl of sample in 40 mM PIPES, pH 6.8, 0.3 M NaCl, 20 mM MnCl2, 50 mM NaF, 1% Triton X-100, 1 mM 5′AMP in a final volume of […]. The assay was initiated by addition of 0.5 μCi of [^35S]PAPS (about 1.7 μM). After 30 min at 37° C., the reaction beads were washed extensively with 6 M guanidine at 65° C. and the radioactivity incorporated into the beads determined by liquid scintillation counting. The reaction rate was optimal at pH 6.8-7.0, 0.3 M NaCl, and 2 μM PAPS and was linear with respect to time and sample input. […] One unit of activity was defined as 1 pmol of product formed per minute.

[1] = test system: PSGL-1 peptide (QATEYEYLDYDFLPEC); test: TPST activity assay: transfer of [35S]sulfate from [35S]PAPS to immobilized PSGL-1 peptide; type: biochemical, Homo sapiens; details: for Induction-Fold: mean specific activity of TPST transfected vs. mock transfected extracts; for TPST activity in cell-free conditioned media / culture supernatants: conditioned media of transfected CHO-K1 and 293-T cells (full-length enzyme); for Specific Activity / specific activity of 293-T cell extracts: mean ± SD; for Specific Activity: 1 unit = 1 pmol product/min; for increase in specific activity of 293-T cell extracts compared to mock transfected: PSGL-1 peptide substrate; for specific activity of 293-T cell extracts: 293-T cells transfected with full-length HPC4 fusion cDNA
Experimental: as §1
Chinese hamster ovary cells (CHO-K1) were grown in high-glucose Alpha modified Eagle's media containing 10% FCS, 2 mM glutamine at 37° C. and 5% CO2. The human embryonic kidney cell line 293-T was grown in low-glucose Dulbecco's modified Eagle's media containing 10% FCS, 2 mM glutamine at 37° C. and 5% CO2. Cells were transfected with empty vector or vector containing cDNAs encoding human TPST-1-HPC4 fusion protein or mouse TPST-1 using Lipofectamine (Gibco/BRL) according to the instructions of the supplier. The media was changed at 24 h and after an additional 24 h the conditioned media was collected. The cell monolayers were washed with Ca^2+/Mg^2+-free Hank's balanced salt solution and the cells released from the plates. The cells were pelleted by centrifugation and extracted with 1% Triton X-100, 0.1 M NaCl, 20 mM TAPS (pH 9.0), 10 μg/ml leupeptin/antipain, 5 mM benzamidine. Extracts and conditioned media were clarified by centrifugation (15 min, 10,000 g) and stored at −80° C.
Expression and characterization of Recombinant TPST-2. Full-length human and mouse TPST-2 were expressed in 293-T cells as HPC4 fusion proteins as described in Experimental Procedures. Cells transfected with empty plasmid or plasmid encoding human and mouse TPST fusion proteins were extracted and assayed for TPST activity and protein content. Extracts were assayed as discussed above using a PSGL-1 peptide substrate (QATEYEYLDYDFLPEC (SEQ ID NO:22)). The specific activity of mock transfected 293-T cell extracts was 0.06±0.01 u/mg (mean±SD, n=6).

[2] = extracts of transfected 293-T cells

QATEYEYLDYDFLPEC [free peptide]
IC50 for inhibition of transfer of [35S]sulfate (TPST): equimolar to the concentration of immobilized peptide in the assay

B1: hTPST-1-HPC4: Human tyrosylprotein sulfotransferase-1 (SEQ ID NO:1) expressed as fusion protein with NH2-terminal HPC4 epitope (protein)
chain: MVGKLKQNLLLACLVISSVTVFYLGQHAMECHHRIEERSQPVKLESTRTTVRTGLDLKANKTFAYHKDMPLIFIGGVPRSGTTLMRAMLDAHPDIRCGEETRVIPRILALKQMWSRSSKEKIRLDEAGVTDEVLDSAMQAFLLEIIVKHGEPAPYLCNKDPFALKSLTYLSRLFPNAKFLLMVRDGRASVHSMISRKVTIAGFDLNSYRDCLTKWNRAIETMYNQCMEVGYKKCMLVHYEQLVLHPERWMRTLLKFLQIPWNHSVLHHEEMIGKAGGVSLSKVERSTDQVIKPVNVGALSKWVGKIPPDVLQDMAVIAPMLAKLGYDPYANPPNYGKPDPKIIENTRRVYKGEFQLPDFLKEKPQTEQVE
modifications: N-terminal HPC4 epitope tag
specific activity of TPST-1 extracts relative to TPST-2 extracts ([1]; 293-T cell extracts, PSGL-1 peptide as substrate): comparable
Induction-Fold ([1]; 293-T cells): 80 Fold
Induction-Fold ([1]; CHO-K1 cells): 9 Fold
TPST activity in cell-free conditioned media / culture supernatants [1]: not detectable
Specific Activity [1, 2]: 8.84 ± 1.53 (5) units/mg
Specific Activity ([1]; extracts of transfected CHO-K1 cells): 2.31 ± 0.89 (3) units/mg
specific activity of purified fusion protein ([1]; purified from 293-T cell extracts by HPC4 affinity chromatography): about 6,300 u/mg

B2: C. elegans TPST-A: C. elegans tyrosylprotein sulfotransferase of 380 amino acids (SEQ ID NO:9), expressed full-length in 293-T cells (protein)
chain: MRKNRELLLVLFLVVFILFYFITARTADDPYYSNHREKFNGAAADDGDESLPFHQLTSVRSDDGYNRTSPFIFIGGVPRSGTTLMRAMLDAHPEVRCGEETRVIPRILNLRSQWKKSEKEWNRLQQAGVTGEVINNAISSFIMEIMVGHGDRAPRLCNKDPFTMKSAVYLKELFPNAKYLLMIRDGRATVNSIISRKVTITGFDLNDFRQCMTKWNAAIQIMVDQCESVGEKNCLKVYYEQLVLHPEAQMRRITEFLDIPWDDKVLHHEQLIGKDISLSNVERSSDQVVKPVNLDALIKWVGTIPEDVVADMDSVAPMLRRLGYDPNANPPNYGKPDELVAKKTEDVHKNGAEWYKKAVQVVNDPGRVDKPIVDNEVSKL
increase in specific activity of 293-T cell extracts compared to mock transfected ([1]; 293-T cells): 40 fold

B3: mouse TPST-2: Full-length mouse tyrosylprotein sulfotransferase-2 (SEQ ID NO:7) expressed as HPC4 fusion protein (protein)
chain: MRLSVRKVLLAAGCALALVLAVQLGQQVLECRAVLGGTRNPRRMRPEQEELVMLGADHVEYRYGKAMPLIFVGGVPRSGTTLMRAMLDAHPEVRCGEETRIIPRVLAMRQAWTKSGREKLRLDEAGVTDEVLDAAMQAFILEVIAKHGEPARVLCNKDPFTLKSSVYLARLFPNSKFLLMVRDGRASVHSMITRKVTIAGFDLSSYRDCLTKWNKAIEVMYAQCMEVGRDKCLPVYYEQLVLHPRRSLKRILDFLGIAWSDTVLHHEDLIGKPGGVSLSKIERSTDQVIKPVNLEALSKWTGHIPRDVVRDMAQIAPMLARLGYDPYANPPNYGNPDPIVINNTHRVLKGDYKTPANLKGYFQVNQNSTSPHLGSS
modifications: HPC4 fusion tag
specific activity of 293-T cell extracts [1]: 2.91±0.86 u/mg
increase in specific activity of 293-T cell extracts compared to mock transfected ([1]; 293-T cells): 46 fold

B4: rat liver TPST: TPST purified from rat liver microsomes, polypeptide of about 50 kDa (protein)
chain: MVGKLKQNLLLACLVISSVTVFYLGQHAMECHHRIEERSQPARLENPKATVRTGLDIKANKTFTYHKNMPLIFIGGVPRSGTTLMRAMLDAHPDIRCGEETRVIPRILALKQMWSRSSKEKIRLDEAGVTDEVLDSAMQAFLLEVIVKHGEPAPYLCNKDPFALKSLTYLARLFPNAKFLLMVRDGRASVHSMISRKVTIAGFDLNSYRDCLTKWNRAIETMYNQCMEVGYKKCMLVHYEQLVLHPERWMRTLLKFLHIPWNHSVLHHEEMIGKAGGVSLSKVERSTDQVIKPVNVGALSKWVGKIPPDVLQDMAVIAPMLAKLGYDPYANPPNYGKPDPKILENTRRVHKGEFQLPDFLKEKPQTEQVE
specific activity of purified enzyme ([1]; rat liver microsomal enzyme after second PSGL-1 peptide column): about 2,950 units/mg

B5: mTPST-1: Mouse tyrosylprotein sulfotransferase-1 (SEQ ID NO:3), expressed from unmodified pcDNA3.1(+) vector (protein)
chain: MVGKLKQNLLLACLVISSVTVFYLGQHAMECHHRIEERSQPARLENPKATVRAGLDIKANKTFTYHKDMPLIFIGGVPRSGTTLMRAMLDAHPDIRCGEETRVIPRILALKQMWSRSSKEKIRLDEAGVTDEVLDSAMQAFLLEVIVKHGEPAPYLCNKDPFALKSLTYLARLFPNAKFLLMVRDGRASVHSMISRKVTIAGFDLNSYRDCLTKWNRAIETMYNQCMEVGYKKCMLVHYEQLVLHPERWMRTLLKFLHIPWNHSVLHHEEMIGKAGGVSLSKVERSTDQVIKPVNVGALSKWVGKIPPDVLQDMAVIAPMLAKLGYDPYANPPNYGKPDPKILENTRRVYKGEFQLPDFLKEKPQTEQVE
Induction-Fold ([1]; 293-T cells): 74 Fold
TPST activity in cell-free conditioned media / culture supernatants [1]: not detectable
Specific Activity [1, 2]: 8.10 ± 1.37 (4) units/mg

B6: human TPST-2: Full-length human tyrosylprotein sulfotransferase-2 (SEQ ID NO:5) expressed as HPC4 fusion protein (protein)
chain: MRLSVRRVLLAAGCALVLVLAVQLGQQVLECRAVLAGLRSPRGAMRPEQEELVMVGTNHVEYRYGKAMPLIFVGGVPRSGTTLMRAMLDAHPEVRCGEETRIIPRVLAMRQAWSKSGREKLRLDEAGVTDEVLDAAMQAFILEVIAKHGEPARVLCNKDPFTLKSSVYLSRLFPNSKFLLMVRDGRASVHSMITRKVTIAGFDLSSYRDCLTKWNKAIEVMYAQCMEVGKEKCLPVYYEQLVLHPRRSLKLILDFLGIAWSDAVLHHEDLIGKPGGVSLSKIERSTDQVIKPVNLEALSKWTGHIPGDVVRDMAQIAPMLAQLGYDPYANPPNYGNPDPFVINNTQRVLKGDYKTPANLKGYFQVNQNSTSSHLGSS
modifications: HPC4 epitope tag
specific activity of 293-T cell extracts [1]: 7.07±1.28 u/mg
increase in specific activity of 293-T cell extracts compared to mock transfected ([1]; 293-T cells): 112 fold
